In patent US20210130827A1:
Values joined by “and” are separate entries in the source; they are usually repeats but may differ in a detail not shown here. Equal values may be shown once.

Target: catalytically deactivated LbCpf1 (dLbCpf1)(dLbCas12a) with eight copies of GCN4 epitopes fused to the C-terminus (Lachnospiraceae bacterium)
Test: cell-based or functional assay

“antibody targeted toward the GCN4 epitope fused to hAPOBEC3A (scFv)” was tested, and the C to T editing efficiency compared to unfused dCpf1 (NGS, HEK293T cells) was less than 5 fold and the C to T editing rate (NGS, HEK293T cells, not sorted for transfected cells) (% of treated cell population) was 7 and 19.
